In patent US20090104149A1:

The substances below were run against human recombinant cyclophilin (human) (UniProt P62937) (assay: competitive ELISA, human recombinant cyclophilin on coated BSA-cyclosporin A; reference cyclosporin A).
Chain of human recombinant cyclophilin (human) (P62937 whole entry): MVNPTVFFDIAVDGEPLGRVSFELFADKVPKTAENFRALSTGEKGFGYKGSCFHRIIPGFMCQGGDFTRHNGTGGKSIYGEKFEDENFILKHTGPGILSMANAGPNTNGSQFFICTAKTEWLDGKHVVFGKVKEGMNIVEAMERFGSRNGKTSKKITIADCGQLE

| Binding Ratio (BR), log10 of IC50 of test compound over IC50 of cyclosporin A | Substance |
| --- | --- |
| 0.1 log10 ratio | [MeVal]^4-Ciclosporin (peptide) |
| 0.1 log10 ratio | [dihydro-MeBmt]^1-[γ-hydroxy-MeLeu]^4-Ciclosporin (peptide) |
| 0.4 log10 ratio | [MeVal]^5-Ciclosporin (peptide) |

The remaining lines, values behind:

| Substance | Binding Ratio (BR), log10 of IC50 of test compound over IC50 of cyclosporin A |
| --- | --- |
| [γ-hydroxy-MeLeu]^9-Ciclosporin (peptide) | 0.15 log10 ratio |
| [Melle]^4-Ciclosporin (peptide) | -0.2 log10 ratio |
| [Ethyl-lle]^4-Ciclosporin (peptide) | 0.1 log10 ratio |
| [MeAla]^6-Ciclosporin (peptide) | -0.4 log10 ratio |
| [Ethyl-Val]^4-Ciclosporin (peptide) | 0 log10 ratio |
| [γ-hydroxy-MeLeu]^4-Ciclosporin (peptide) | 0.4 log10 ratio |
| [8′-hydroxy-MeBmt]^5-Ciclosporin (peptide) | 0.35 log10 ratio |
